Measurements reported in paper PMC8319186, “Mitochondrial adaptor TRAK2 activates and functionally links opposing kinesin and dynein motors” (Nature Communications, 2021).

B1: Halo-TRAK2 [not stated] / Myc-KIF5B [mouse] (parent complex)
chain 1: MSQSQNAIFTSPTGEENLMNSNHRDSESITDVCSNEDLPEVELVSLLEEQLPQYRLKVDTLFLYENQDWTQSPHQRQHASDALSPVLAEETFRYMILGTDRVEQMTKTYNDIDMVTHLLAERDRDLELAARIGQALLKRNHVLSEQNESLEEQLGQAFDQVNQLQHELCKKDELLRIVSIASEESETDSSCSTPLRFNESFSLSQGLLQLEMLQEKLKELEEENMALRSKACHIKTETVTYEEKEQQLVSDCVKELRETNAQMSRMTEELSGKSDELIRYQEELSSLLSQIVDLQHKLKEHVIEKEELKLHLQASKDAQRQLTMELHELQDRNMECLGMLHESQEEIKELRSRSGPTAHLYFSQSYGAFTGESLAAEIEGTMRKKLSLDEESSLFKQKAQQKRVFDTVRIANDTRGRSISFPALLPIPGSNRSSVIMTAKPFESGLQQTEDKSLLNQGSSSEEVAGSSQKMGQPGPSGDSDLATALHRLSLRRQNYLSEKQFFAEEWQRKIQVLADQKEGVSGCVTPTESLASLCTTQSEITDLSSASCLRGFMPEKLQIVKPLEGSQTLYHWQQLAQPNLGTILDPRPGVITKGFTQLPGDAIYHISDLEEDEEEGITFQVQQPLEVEEKLSTSKPVTGIFLPPITSAGGPVTVATANPGKCLSCTNSTFTFTTCRILHPSDITQVTPSSGFPSLSCGSSGSSSSNTAVNSPALSYRLSIGESITNRRDSTTTFSSTMSLAKLLQERGISAKVYHSPISENPLQPLPKSLAIPSTPPNSPSHSPCPSPLPFEPRVHLSENFLASRPAETFLQEMYGLRPSRNPPDVGQLKMNLVDRLKRLGIARVVKNPGAQENGRCQEAEIGPQKPDSAVYLNSGSSLLGGLRRNQSLPVIMGSFAAPVCTSSPKMGVLKED
chain 2: MADPAECNIKVMCRFRPLNESEVNRGDKYVAKFQGEDTVMIASKPYAFDRVFQSSTSQEQVYNDCAKKIVKDVLEGYNGTIFAYGQTSSGKTHTMEGKLHDPEGMGIIPRIVQDIFNYIYSMDENLEFHIKVSYFEIYLDKIRDLLDVSKTNLSVHEDKNRVPYVKGCTERFVCSPDEVMDTIDEGKSNRHVAVTNMNEHSSRSHSIFLINVKQENTQTEQKLSGKLYLVDLAGSEKVSKTGAEGAVLDEAKNINKSLSALGNVISALAEGSTYVPYRDSKMTRILQDSLGGNCRTTIVICCSPSSYNESETKSTLLFGQRAKTIKNTVCVNVELTAEQWKKKYEKEKEKNKTLRNTIQWLENELNRWRNGETVPIDEQFDKEKANLEAFTADKDIAITSDKPAAAVGMAGSFTDAERRKCEEELAKLYKQLDDKDEEINQQSQLVEKLKTQMLDQEELLASTRRDQDNMQAELNRLQAENDASKEEVKEVLQALEELAVNYDQKSQEVEDKTKEYELLSDELNQKSATLASIDAELQKLKEMTNHQKKRAAEMMASLLKDLAEIGIAVGNNDVKQPEGTGMIDEEFTVARLYISKMKSEVKTMVKRCKQLESTQTESNKKMEENEKELAACQLRISQHEAKIKSLTEYLQNVEQKKRQLEESVDSLGEELVQLRAQEKVHEMEKEHLNKVQTANEVKQAVEQQIQSHRETHQKQISSLRDEVEAKEKLITDLQDQNQKMVLEQERLRVEHERLKATDQEKSRKLHELTVMQDRREQARQDLKGLEETVAKELQTLHNLRKLFVQDLATRVKKSAEVDSDDTGGSAAQKQKISFLENNLEQLTKVHKQLVRDNADLRCELPKLEKRLRATAERVKALESALKEAKENASRDRKRYQQEVDRIKEAVRSKNMARRGHSAQIAKPIRPGQHPAASPTHPGTVRGGGSFVQNNQPVGLRGGGGKQS

Variants of: B1
Assay: co-immunoprecipitation (Halo antibody IP, western blot quantification); extracts from COS-7 cells transfected with Myc-KIF5B and Halo-tagged constructs; mean ± s.d. from three independent experiments; parent: 0.65; read off a plot

Point of comparison: chain 1 A129V, chain 1 A130V, response ~0.61. Against it:
- chain 1 I132D — lower, ~0.6
